Bounds are passed on as bounds.

Test [1] deals with T1, human IGF2^1-67 (mature insulin-like growth factor 2) (human, UniProt P01344 25-91, biotinylated (site not stated) where immobilised on the chip (Tables 1-4)).
T1 construct: mature; also called mature IGF2; biotinylated IGF2
Nature of the test: SPR. From the text: Surface plasmon resonance (SPR) binding analysis of recombinant M6P/IGF2R domain 11 mutants interaction with IGF2. Kon indicates association (on) rate; koff, dissociation (off) rate; RU, response units. Binding to IGF2 assessed with BIAcore T200 using purified biotinylated IGF2 and IGF1 on a streptavidin biosensor chip. Recombinant proteins were expressed either in E. coli and/or P. pastoris. All the mutants in the FG and CD loops are on the domain 11^AB5 background for the AB loop unless otherwise stated. All experiments were carried out at 25° C. in HBS-EP buffer (pH 7.4), were repeated 2-5 times on two independent BIAcore chips. nd=not determined. Data for KD expressed as mean of each experiment, and means of kon and koff are shown.
(§1) Final kinetic analysis of mutants by SPR was conducted using a Biacore T200 biosensor at 25° C. in either HBS-EP (10 mM HEPES pH 7.4, 150 mM NaCl, 3 mM EDTA, and 0.005% (v/v) surfactant P20) or MES-EP (20 mM MES pH 6.5, 150 mM NaCl, 3 mM EDTA, and 0.005% (v/v) surfactant P20) at a flow-rate of 40 μL min⁻¹. […] For the analysis of the Fc-domain 11^AB5 interaction, approximately 50 RU of a biotinylated IGF2:biotinylated ubiquitin mixture (1:8 proportion) was immobilized on the CM5-streptavidin chip. This interaction was also analysed by immobilizing the Fc-domain 11^AB5 and Fc-domain 11^AB5-RHH (or Fc-domain 11^I1572A as control) by Human Antibody Capture (monoclonal mouse anti-human IgG antibody immobilised on a CM5 chip by amine coupling, GE Healthcare) with and without human IgG1 Fc fragment (Bethyl Laboratories, UK) in the control flow cell. […] T200 BiaEvaluation software (GE Healthcare) was used to fit the resulting curves according to a 1:1 binding model.

Test [2] concerns the target T1, human IGF2^1-67 (mature insulin-like …). The experiment in a line: SPR (Biacore T200, 25 °C, HBS-EP pH 7.4); ΔΔG° = RT ln(KD mutant / KD domain 11^AB3); box AB+FG. The method, then:
Boxes show the change in the binding free energy contribution, ΔΔGº, for the indicated mutants. The loop/s that contains the mutation/s is indicated in each box. The ΔΔGº values were calculated as ΔΔGº=ΔGº domain 11^mutant−ΔGº domain 11^AB3=RTln(KD domain 11^mutant/KD domain 11^AB3). Additive and non-additive contributions of single point mutations are shown when calculated with a box solid line and dashed line, respectively.
as §1, with “model. Steady state affinities were determined using the kinetic data, taking the response average at 5 seconds before injection end and for 5 seconds average.” for “model.”

For test [3] the target is unchanged. Nature of the test: SPR kinetic, biotin-IGF2 on chip, pH 7.4. The protocol:
as §1, with “model. Steady state affinities were determined using the kinetic data, taking the response average at 5 seconds before injection end and for 5 seconds average. Thermodynamic data was performed across the temperature range of 10° C. to 30° C., van't Hoff and Erying plots generated and ΔH, −TΔS and ΔG values determined as previously described.” for “model.”

The target is the same in test [4]. Nature of the test: SPR steady state, biotin-IGF2 on chip, pH 7.4. The method, then:
as §1, with “model. Steady state affinities were determined using the kinetic data, taking the response average at 5 seconds before injection end and for 5 seconds average. Thermodynamic data was performed across the temperature range of 10° C. to 30° C., van't Hoff and Erying plots generated and ΔH, −TΔS and ΔG values determined as previously described.” for “model.”

Test [5] shares this target. Nature of the test: SPR steady state, biotin-IGF2 on chip. The protocol: as §1, with “model. Steady state affinities were determined using the kinetic data, taking the response average at 5 seconds before injection end and for 5 seconds average. Thermodynamic data was performed across the temperature range of 10° C. to 30° C., van't Hoff and Erying plots generated and ΔH, −TΔS and ΔG values determined as previously described.” for “model.”

Test [6] has the same target. Nature of the test: SPR kinetic, biotin-IGF2 on chip. The protocol:
as §1, with “model. Steady state affinities were determined using the kinetic data, taking the response average at 5 seconds before injection end and for 5 seconds average. Thermodynamic data was performed across the temperature range of 10° C. to 30° C., van't Hoff and Erying plots generated and ΔH, −TΔS and ΔG values determined as previously described.” for “model.”

The target is the same in test [7]. The experiment in a line: SPR, biotin-IGF2 on chip, pH 7.4.
Test [8] shares this target. The experiment in a line: SPR steady state, biotin-IGF2 on chip, pH 7.4. The method, boiled down:
(§2)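 Biotinylated IGF2 captured on streptavidin chip; recombinant M6P/IGF2R domain 11 mutants (E. coli or P. pastoris) injected at 25° C in HBS-EP, pH 7.4, 40 μL min⁻¹. Kinetics fitted to 1:1 model; steady-state KD from 5 s response averages before injection end; 2-5 repeats on two chips.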
This is another data set of the same source.

The target is the same in test [9]. Nature of the test: SPR kinetic, biotin-IGF2 on chip, pH 7.4. A digest of the protocol: as §2
This is another data set of the same source.

In a further test the target is pro-IGF2^1-104 (UniProt P01344 25-128). The experiment in a line: SPR kinetic, Fc fusion captured by anti-human IgG, pH 7.4. The method, then:
(§3) SPR analysis of the interaction of recombinant IGF1 and IGF2 forms with Fc-domain 11 proteins immobilised by antibody capture (CM5 chip containing monoclonal mouse anti-human IgG antibody immobilised by amine coupling). Measurements were carried out at 25° C. in HBS-EP buffer (pH 7.4).
as §1, with “model. Steady state affinities were determined using the kinetic data, taking the response average at 5 seconds before injection end and for 5 seconds average. Thermodynamic data was performed across the temperature range of 10° C. to 30° C., van't Hoff and Erying plots generated and ΔH, −TΔS and ΔG values determined as previously described.” for “model.”

Test [10] addresses T1, human IGF2^1-67 (mature insulin-like …). Described as above. The protocol:
as §3
as §1, with “model. Steady state affinities were determined using the kinetic data, taking the response average at 5 seconds before injection end and for 5 seconds average. Thermodynamic data was performed across the temperature range of 10° C. to 30° C., van't Hoff and Erying plots generated and ΔH, −TΔS and ΔG values determined as previously described.” for “model.”

In the next test the target is T2, pro-IGF2^1-156 (UniProt P01344 25-180).
T2 construct: range 1-156
T2 sequence (P01344 25-180 limits assumed): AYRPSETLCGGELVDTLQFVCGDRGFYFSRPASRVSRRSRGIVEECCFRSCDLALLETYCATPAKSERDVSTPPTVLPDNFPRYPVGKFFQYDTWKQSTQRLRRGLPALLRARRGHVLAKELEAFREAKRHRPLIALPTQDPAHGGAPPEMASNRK
The description is as above. The protocol:
as §3
as §1, with “model. Steady state affinities were determined using the kinetic data, taking the response average at 5 seconds before injection end and for 5 seconds average. Thermodynamic data was performed across the temperature range of 10° C. to 30° C., van't Hoff and Erying plots generated and ΔH, −TΔS and ΔG values determined as previously described.” for “model.”

T1 sequence (P01344 25-91): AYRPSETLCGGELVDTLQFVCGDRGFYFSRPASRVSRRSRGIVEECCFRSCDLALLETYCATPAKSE
pro-IGF2^1-104, sequence (P01344 25-128 limits assumed): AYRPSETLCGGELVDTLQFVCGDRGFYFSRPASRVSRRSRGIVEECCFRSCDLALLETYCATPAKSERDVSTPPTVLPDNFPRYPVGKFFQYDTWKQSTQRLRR

B1: domain 11^AB3 P1597H (receptor)
chain: MKSNEHDDCQVTNPSTGHLFDLSSLSGRAGFTAAYSKSGVVYMSICGENENCPPGVGACFGQTRISVGKANKRLRYVDQVLQLVYKDGSHCPSKSGLSYKSVISFVCRPEAGPTNRPMLISLDKQTCTLFFSWHTPLACEQATECSV
notes: See m5; also called AB3 + 62B (FG-P1597H)
Regarding B1, in [1], the “fold change of KD against domain 11^AB3” value came out at 10 fold. Also, in [1], the “fold reduction of koff against domain 11^AB3” value was 4 fold. The ΔΔG in test [2] is -1.49 kcal/mol. Besides, the Kd in test [3] was found to be 1.23 nM; in test [4], 1.76 nM; in test [5] it was 1.76 nM; in test [6], 1.23 nM. In addition, the koff in test [3] and in test [6] was 0.013 s⁻¹ throughout. Also, the kon in [3] and in [6] was 1.06e+07 M⁻¹ s⁻¹ each time.

B2: domain 11^AB5 Q1569R P1597H S1602H G1603K (receptor)
chain: MKSNEHDDCQVTNPSTGHLFDLSSLSGRAGFTAAYAKGWGVYMSICGENENCPPGVGACFGRTRISVGKANKRLRYVDQVLQLVYKDGSHCPSKHKLSYKSVISFVCRPEAGPTNRPMLISLDKQTCTLFFSWHTPLACEQATECSV
notes: See m5; Only koff printed; other cells np (no protein)
The molecule B2 had a koff in test [7] of 0.005 s⁻¹.

B3: domain 11^AB5 P1597H (receptor)
chain: MKSNEHDDCQVTNPSTGHLFDLSSLSGRAGFTAAYAKGWGVYMSICGENENCPPGVGACFGQTRISVGKANKRLRYVDQVLQLVYKDGSHCPSKSGLSYKSVISFVCRPEAGPTNRPMLISLDKQTCTLFFSWHTPLACEQATECSV
notes: See m5
B3 yielded a ΔΔG in test [2] of -1.23 kcal/mol. In test [3], binding was characterised by a dissociation constant (Kd) of 1.9 nM, the koff is 0.007 s⁻¹ and the kon is 3.68e+06 M⁻¹ s⁻¹. The same molecule had a Kd in test [4] of 2.79 nM.

B4: domain 11^AB5 S1602H (receptor)
chain: MKSNEHDDCQVTNPSTGHLFDLSSLSGRAGFTAAYAKGWGVYMSICGENENCPPGVGACFGQTRISVGKANKRLRYVDQVLQLVYKDGSPCPSKHGLSYKSVISFVCRPEAGPTNRPMLISLDKQTCTLFFSWHTPLACEQATECSV
notes: See m5
In turn, B4 yielded a Kd in test [8] of 5.44 nM. Further, the “fold improvement of affinity” value in test [1] was not above 2 fold. This molecule also had a ΔΔG in test [2] of -0.93 kcal/mol. For the same molecule, in test [9], the Kd amounted to 3.19 nM, the off-rate (koff) stood at 0.0112 s⁻¹ and the kon turned out to be 3.61e+06 M⁻¹ s⁻¹.

B5: domain 11^AB5 G1603K (receptor)
chain: MKSNEHDDCQVTNPSTGHLFDLSSLSGRAGFTAAYAKGWGVYMSICGENENCPPGVGACFGQTRISVGKANKRLRYVDQVLQLVYKDGSPCPSKSKLSYKSVISFVCRPEAGPTNRPMLISLDKQTCTLFFSWHTPLACEQATECSV
notes: See m5
For the molecule B5, the Kd in [8] was determined as 4.54 nM. The “fold improvement of affinity” value in test [1] was not above 2 fold. The same molecule registered a ΔΔG in test [2] of -1.02 kcal/mol. In test [9], this molecule registered a Kd of 2.73 nM, a koff of 0.0121 s⁻¹ and a kon of 4.66e+06 M⁻¹ s⁻¹.

B6: domain 11^AB5 HI^23D (receptor)
chain: MKSNEHDDCQVTNPSTGHLFDLSSLSGRAGFTAAYAKGWGVYMSICGENENCPPGVGACFGQTRISVGKANKRLRYVDQVLQLVYKDGSPCPSKSGLSYKSVISFVCRPEAGPTNRPMLISLHFQSCTLFFSWHTPLACEQATECSV
notes: as for B2
In [7], B6 yielded a koff of 0.012 s⁻¹.

B7: domain 11^AB3 P1597H HI^23D (receptor)
chain: MKSNEHDDCQVTNPSTGHLFDLSSLSGRAGFTAAYSKSGVVYMSICGENENCPPGVGACFGQTRISVGKANKRLRYVDQVLQLVYKDGSHCPSKSGLSYKSVISFVCRPEAGPTNRPMLISLHFQSCTLFFSWHTPLACEQATECSV
notes: See m5; Only koff printed
As to B7, in test [7], the koff worked out at 0.012 s⁻¹.

B8: domain 11^AB5 Q1569R P1597K S1602H G1603K (receptor)
chain: MKSNEHDDCQVTNPSTGHLFDLSSLSGRAGFTAAYAKGWGVYMSICGENENCPPGVGACFGRTRISVGKANKRLRYVDQVLQLVYKDGSKCPSKHKLSYKSVISFVCRPEAGPTNRPMLISLDKQTCTLFFSWHTPLACEQATECSV
notes: as for B2
Consider B8, for which the koff in test [7] is 0.008 s⁻¹.

B9: Fc-domain 11^AB5-RHH (IGF2-TRAP) (Fc fusion, not shown: a dimerising Fc or GST)
chain: NEHDDCQVTNPSTGHLFDLSSLSGRAGFTAAYAKGWGVYMSICGENENCPPGVGACFGRTRISVGKANKRLRYVDQVLQLVYKDGSHCPSKHGLSYKSVISFVCRPEAGPTNRPMLISLDKQTCTLFFSWHTPLACEQAT
notes: RHH is not defined in words; read as Q1569R P1597H S1602H on AB5; IgG2 Fc is stated for the CHO product; also called IgG2 Fc-domain 11^AB5-RHH; Fc-domain 11^RHH
Take B9: in the test with pro-IGF2^1-104, the Kd came to 0.39 nM, the koff was 0.0005 s⁻¹ and the kon was found to be 1.29e+06 M⁻¹ s⁻¹. Further, in test [10], the Kd was 0.54 nM, the koff is 0.0014 s⁻¹ and the kon turned out to be 2.6e+06 M⁻¹ s⁻¹. Also, in the test with pro-IGF2^1-156, the affinity, expressed as Kd, was 1.13 nM; the koff turned out to be 0.0003 s⁻¹; the kon worked out at 230000 M⁻¹ s⁻¹.

The values above are taken from patent publication US20180237497A1 (CANCER RESEARCH TECHNOLOGY, published 2018).
